Experimental data reported in patent US20090099029.

T1: Bovine, dephosphorylated, Myelin Basic Protein (MBP), P02687
T1 chain: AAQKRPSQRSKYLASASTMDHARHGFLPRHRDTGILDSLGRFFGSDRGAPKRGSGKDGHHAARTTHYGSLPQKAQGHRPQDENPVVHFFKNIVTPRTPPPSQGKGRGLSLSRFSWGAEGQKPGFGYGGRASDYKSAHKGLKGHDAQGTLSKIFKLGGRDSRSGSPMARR

B1: MAPK12(p38gamma) (protein)
chain: MSSPPPARSGFYRQEVTKTAWEVRAVYRDLQPVGSGAYGAVCSAVDGRTGAKVAIKKLYRPFQSELFAKRAYRELRLLKHMRHENVIGLLDVFTPDETLDDFTDFYLVMPFMGTDLGKLMKHEKLGEDRIQFLVYQMLKGLRYIHAAGIIHRDLKPGNLAVNEDCELKILDFGLARQADSEMTGYVVTRWYRAPEVILNWMRYTQTVDIWSVGCIMAEMITGKTLFKGSDHLDQLKEIMKVTGTPPAEFVQRLQSDEAKNYMKGLPELEKKDFASILTNASPLAVNLLEKMLVLDAEQRVTAGEALAHPYFESLHDTEDEPQVQKYDDSFDDVDRTLDEWKRVTYKEVLSFKPPRQLGARVSKETPL
B2: MYLK2 (protein)
chain: MATENGAVELGIQNPSTDKAPKGPTGERPLAAGKDPGPPDPKKAPDPPTLKKDAKAPASEKGDGTLAQPSTSSQGPKGEGDRGGGPAEGSAGPPAALPQQTATPETSVKKPKAEQGASGSQDPGKPRVGKKAAEGQAAARRGSPAFLHSPSCPAIISSSEKLLAKKPPSEASELTFEGVPMTHSPTDPRPAKAEEGKNILAESQKEVGEKTPGQAGQAKMQGDTSRGIEFQAVPSEKSEVGQALCLTAREEDCFQILDDCPPPPAPFPHRMVELRTGNVSSEFSMNSKEALGGGKFGAVCTCMEKATGLKLAAKVIKKQTPKDKEMVLLEIEVMNQLNHRNLIQLYAAIETPHEIVLFMEYIEGGELFERIVDEDYHLTEVDTMVFVRQICDGILFMHKMRVLHLDLKPENILCVNTTGHLVKIIDFGLARRYNPNEKLKVNFGTPEFLSPEVVNYDQISDKTDMWSMGVITYMLLSGLSPFLGDDDTETLNNVLSGNWYFDEETFEAVSDEAKDFVSNLIVKDQRARMNAAQCLAHPWLNNLAEKAKRCNRRLKSQILLKKYLMKRRWKKNFIAVSAANRFKKISSSGALMALGV
B3: MAP3K9(MLK1) (protein)
chain: MEPSRALLGCLASAAAAAPPGEDGAGAGAEEEEEEEEEAAAAVGPGELGCDAPLPYWTAVFEYEAAGEDELTLRLGDVVEVLSKDSQVSGDEGWWTGQLNQRVGIFPSNYVTPRSAFSSRCQPGGEDPSCYPPIQLLEIDFAELTLEEIIGIGGFGKVYRAFWIGDEVAVKAARHDPDEDISQTIENVRQEAKLFAMLKHPNIIALRGVCLKEPNLCLVMEFARGGPLNRVLSGKRIPPDILVNWAVQIARGMNYLHDEAIVPIIHRDLKSSNILILQKVENGDLSNKILKITDFGLAREWHRTTKMSAAGTYAWMAPEVIRASMFSKGSDVWSYGVLLWELLTGEVPFRGIDGLAVAYGVAMNKLALPIPSTCPEPFAKLMEDCWNPDPHSRPSFTNILDQLTTIEESGFFEMPKDSFHCLQDNWKHEIQEMFDQLRAKEKELRTWEEELTRAALQQKNQEELLRRREQELAEREIDILERELNIIIHQLCQEKPRVKK
B4: MAPK11(p38B) (protein)
chain: MSGPRAGFYRQELNKTVWEVPQRLQGLRPVGSGAYGSVCSAYDARLRQKVAVKKLSRPFQSLIHARRTYRELRLLKHLKHENVIGLLDVFTPATSIEDFSEVYLVTTLMGADLNNIVKCQALSDEHVQFLVYQLLRGLKYIHSAGIIHRDLKPSNVAVNEDCELRILDFGLARQADEEMTGYVATRWYRAPEIMLNWMHYNQTVDIWSVGCIMAELLQGKALFPGSDYIDQLKRIMEVVGTPSPEVLAKISSEHARTYIQSLPPMPQKDLSSIFRGANPLAIDLLGRMLVLDSDQRVSAAEALAHAYFSQYHDPEDEPEAEPYDESVEAKERTLEEWKELTYQEVLSFKPPEPPKPPGSLEIEQ
B5: MAPK8(JNK1) (protein)
chain: MSRSKRDNNFYSVEIGDSTFTVLKRYQNLKPIGSGAQGIVCAAYDAILERNVAIKKLSRPFQNQTHAKRAYRELVLMKCVNHKNIIGLLNVFTPQKSLEEFQDVYIVMELMDANLCQVIQMELDHERMSYLLYQMLCGIKHLHSAGIIHRDLKPSNIVVKSDCTLKILDFGLARTAGTSFMMTPYVVTRYYRAPEVILGMGYKENVDLWSVGCIMGEMVCHKILFPGRDYIDQWNKVIEQLGTPCPEFMKKLQPTVRTYVENRPKYAGYSFEKLFPDVLFPADSEHNKLKASQARDLLSKMLVIDASKRISVDEALQHPYINVWYDPSEAEAPPPKIPDKQLDEREHTIEEWKELIYKEVMDLEERTKNGVIRGQPSPLAQVQQ
B6: MAPK3(ERK1) (protein)
chain: MAAAAAQGGGGGEPRRTEGVGPGVPGEVEMVKGQPFDVGPRYTQLQYIGEGAYGMVSSAYDHVRKTRVAIKKISPFEHQTYCQRTLREIQILLRFRHENVIGIRDILRASTLEAMRDVYIVQDLMETDLYKLLKSQQLSNDHICYFLYQILRGLKYIHSANVLHRDLKPSNLLINTTCDLKICDFGLARIADPEHDHTGFLTEYVATRWYRAPEIMLNSKGYTKSIDIWSVGCILAEMLSNRPIFPGKHYLDQLNHILGILGSPSQEDLNCIINMKARNYLQSLPSKTKVAWAKLFPKSDSKALDLLDRMLTFNPNKRITVEEALAHPYLEQYYDPTDEPVAEEPFTFAMELDDLPKERLKELIFQETARFQPGVLEAP
B7: MAP4K4(HGK) (protein)
chain: MANDSPAKSLVDIDLSSLRDPAGIFELVEVVGNGTYGQVYKGRHVKTGQLAAIKVMDVTEDEEEEIKLEINMLKKYSHHRNIATYYGAFIKKSPPGHDDQLWLVMEFCGAGSITDLVKNTKGNTLKEDWIAYISREILRGLAHLHIHHVIHRDIKGQNVLLTENAEVKLVDFGVSAQLDRTVGRRNTFIGTPYWMAPEVIACDENPDATYDYRSDLWSCGITAIEMAEGAPPLCDMHPMRALFLIPRNPPPRLKSKKWSKKFFSFIEGCLVKNYMQRPSTEQLLKHPFIRDQPNERQVRIQLKDHIDRTRKKRGEKDETEYEYSGSEE
B8: EPHA8 (protein)
chain: KKRHCGYSKAFQDSDEEKMHYQNGQAPPPVFLPLHHPPGKLPEPQFYAEPHTYEEPGRAGRSFTREIEASRIHIEKIIGSGDSGEVCYGRLRVPGQRDVPVAIKALKAGYTERQRRDFLSEASIMGQFDHPNIIRLEGVVTRGRLAMIVTEYMENGSLDTFLRTHDGQFTIMQLVGMLRGVGAGMRYLSDLGYVHRDLAARNVLVDSNLVCKVSDFGLSRVLEDDPDAAYTTTGGKIPIRWTAPEAIAFRTFSSASDVWSFGVVMWEVLAYGERPYWNMTNRDVISSVEEGYRLPAPMGCPHALHQLMLDCWHKDRAQRPRFSQIVSVLDALIRSPESLRATATVSRCPPPAFVRSCFDLRGGSGGGGGLTVGDWLDSIRMGRYRDHFAAGGYSSLGMVLRMNAQDVRALGITLMGHQKKILGSIQTMRAQLTSTQGPRRHL
B9: MAPKAPK5(PRAK) (protein)
chain: MSEESDMDKAIKETSILEEYSINWTQKLGAGISGPVRVCVKKSTQERFALKILLDRPKARNEVRLHMMCATHPNIVQIIEVFANSVQFPHESSPRARLLIVMEMMEGGELFHRISQHRHFTEKQASQVTKQIALALRHCHLLNIAHRDLKPENLLFKDNSLDAPVKLCDFGFAKIDQGDLMTPQFTPYYVAPQVLEAQRRHQKEKSGIIPTSPTPYTYNKSCDLWSLGVIIYVMLCGYPPFYSKHHSRTIPKDMRRKIMTGSFEFPEEEWSQISEMAKDVVRKLLKVKPEERLTIEGVLDHPWLNSTEALDNVLPSAQLMMDKAVVAGIQQAHAEQLANMRIQDLKVSLKPLHSVNNPILRKRKLLGTKPKDSVYIHDHENGAEDSNVALEKLRDVIAQCILPQAGENEDEKLNEVMQEAWKYNRECKLLRDTLQSFSWNGRGFTDKVDRLKLAEIVKQVIEEQTTSHESQ
B10: MAPK13(p38delta) (protein)
chain: MSLIRKKGFYKQDVNKTAWELPKTYVSPTHVGSGAYGSVCSAIDKRSGEKVAIKKLSRPFQSEIFAKRAYRELLLLKHMQHENVIGLLDVFTPASSLRNFYDFYLVMPFMQTDLQKIMGMEFSEEKIQYLVYQMLKGLKYIHSAGVVHRDLKPGNLAVNEDCELKILDFGLARHADAEMTGYVVTRWYRAPEVILSWMHYNQTVDIWSVGCIMAEMLTGKTLFKGKDYLDQLTQILKVTGVPGTEFVQKLNDKAAKSYIQSLPQTPRKDFTQLFPRASPQAADLLEKMLELDVDKRLTAAQALTHPFFEPFRDPEEETEAQQPFDDSLEHEKLTVDEWKQHIYKEIVNFSPIARKDSRRRSGMKL
B11: MINK1 (protein)
chain: MGDPAPARSLDDIDLSALRDPAGIFELVEVVGNGTYGQVYKGRHVKTGQLAAIKVMDVTEDEEEEIKQEINMLKKYSHHRNIATYYGAFIKKSPPGNDDQLWLVMEFCGAGSVTDLVKNTKGNALKEDCIAYICREILRGLAHLHAHKVIHRDIKGQNVLLTENAEVKLVDFGVSAQLDRTVGRRNTFIGTPYWMAPEVIACDENPDATYDYRSDIWSLGITAIEMAEGAPPLCDMHPMRALFLIPRNPPPRLKSKKWSKKFIDFIDTCLIKTYLSRPPTEQLLKFPFIRDQPTERQVRIQLKDHIDRSRKKRGEKEETE
B12: MAPK14(p38alpha) (protein)
chain: MSQERPTFYRQELNKTIWEVPERYQNLSPVGSGAYGSVCAAFDTKTGLRVAVKKLSRPFQSIIHAKRTYRELRLLKHMKHENVIGLLDVFTPARSLEEFNDVYLVTHLMGADLNNIVKCQKLTDDHVQFLIYQILRGLKYIHSADIIHRDLKPSNLAVNEDCELKILDFGLARHTDDEMTGYVATRWYRAPEIMLNWMHYNQTVDIWSVGCIMAELLTGRTLFPGTDHINQLQQIMRLTGTPPAYLINRMPSHEARNYIQSLTQMPKMNFANVFIGANPLAVDLLEKMLVLDSDKRITAAQALAHAYFAQYHDPDDEPVADPYDQSFESRDLLIDEWKSLTYDEVISFVPPPLDQEEMES
B13: MAPKAPK3 (protein)
chain: MDGETAEEQGGPVPPPVAPGGPGLGGAPGGRREPKKYAVTDDYQLSKQVLGLGVNGKVLECFHRRTGQKCALKLLYDSPKARQEVDHHWQASGGPHIVCILDVYENMHHGKRCLLIIMECMEGGELFSRIQERGDQAFTEREAAEIMRDIGTAIQFLHSHNIAHRDVKPENLLYTSKEKDAVLKLTDFGFAKETTQNALQTPCYTPYYVAPEVLGPEKYDKSCDMWSLGVIMYILLCGFPPFYSNTGQAISPGMKRRIRLGQYGFPNPEWSEVSEDAKQLIRLLLKTDPTERLTITQFMNHPWINQSMVVPQTPLHTARVLQEDKDHWDEVKEEMTSALATMRVDYDQVKIKDLKTSNNRLLNKRRKKQAGSSSASQGCNNQ

Target: T1, Bovine, dephosphorylated, Myelin Basic …

MBP Kinase Activity, Weak:
B8, B10, B11

MBP Kinase Activity, Strong:
B1, B3, B4, B6, B7, B9, B12, B13

MBP Kinase Activity, Negative:
B2, B5
